Measured values as given in PMC7144902, “Absence of MeCP2 binding to non-methylated GT-rich sequences in vivo”.

Tests used:
Settings in all cases: protein: recombinant; tags: C-terminal His; label: 32P; blunt
[1] = target: T1, MeCP2[1-205] (Homo sapiens, UniProt P51608 1-205); test: EMSA; similar to GGTGT and mCAC; EMSA: 10 mM Tris-HCl pH 7.5, 150 mM KCl (250 mM for MeCP2[1-486]), 0.1 mg/ml BSA, 5% glycerol, 0.1 mM EDTA, 1 ug poly(dA-dT), 1 ng probe, 20 ul, 30 min on ice
[2] = target: T1, MeCP2[1-205]; test: EMSA; no significant binding; EMSA: 10 mM Tris-HCl pH 7.5, 150 mM KCl (250 mM for MeCP2[1-486]), 0.1 mg/ml BSA, 5% glycerol, 0.1 mM EDTA, 1 ug poly(dA-dT), 1 ng probe, 20 ul, 30 min on ice
[3] = target: T1, MeCP2[1-205]; test: EMSA; comparable to mCAC, lower than mCG; EMSA: 10 mM Tris-HCl pH 7.5, 150 mM KCl (250 mM for MeCP2[1-486]), 0.1 mg/ml BSA, 5% glycerol, 0.1 mM EDTA, 1 ug poly(dA-dT), 1 ng probe, 20 ul, 30 min on ice
[4] = target: T1, MeCP2[1-205]; test: EMSA; only marginal effect; EMSA: 10 mM Tris-HCl pH 7.5, 150 mM KCl (250 mM for MeCP2[1-486]), 0.1 mg/ml BSA, 5% glycerol, 0.1 mM EDTA, 1 ug poly(dA-dT), 1 ng probe, 20 ul, 30 min on ice
[5] = target: T1, MeCP2[1-205]; test: EMSA; stronger than mCAC and GGTGT; EMSA: 10 mM Tris-HCl pH 7.5, 150 mM KCl (250 mM for MeCP2[1-486]), 0.1 mg/ml BSA, 5% glycerol, 0.1 mM EDTA, 1 ug poly(dA-dT), 1 ng probe, 20 ul, 30 min on ice
[6] = target: MeCP2[1-486] (Homo sapiens, UniProt P51608 1-486); test: EMSA; 250 mM KCl; preferred over CG; EMSA: 10 mM Tris-HCl pH 7.5, 150 mM KCl (250 mM for MeCP2[1-486]), 0.1 mg/ml BSA, 5% glycerol, 0.1 mM EDTA, 1 ug poly(dA-dT), 1 ng probe, 20 ul, 30 min on ice
[7] = target: T1, MeCP2[1-205]; test: EMSA; background only; EMSA: 10 mM Tris-HCl pH 7.5, 150 mM KCl (250 mM for MeCP2[1-486]), 0.1 mg/ml BSA, 5% glycerol, 0.1 mM EDTA, 1 ug poly(dA-dT), 1 ng probe, 20 ul, 30 min on ice
[8] = target: T1, MeCP2[1-205]; test: EMSA; EMSA: 10 mM Tris-HCl pH 7.5, 150 mM KCl (250 mM for MeCP2[1-486]), 0.1 mg/ml BSA, 5% glycerol, 0.1 mM EDTA, 1 ug poly(dA-dT), 1 ng probe, 20 ul, 30 min on ice
[9] = target: MeCP2[77-167] (Homo sapiens, UniProt P51608 77-167); test: as above

B1: GT4 (dsDNA)
DNA 1: AAGCATGCAATGCCCTGGAAGTGTGTGTAATTCTTCTAATAAAAGATGTATCATTTTAAATGC
DNA 2: GCATTTAAAATGATACATCTTTTATTAGAAGAATTACACACACTTCCAGGGCATTGCATGCTT
- binding result [1]: binds

B2: GT1 (dsDNA)
DNA 1: AAGCATGCAATGCCCTGGAAGTAATTCTTCTAATAAAAGATGTATCATTTTAAATGC
DNA 2: GCATTTAAAATGATACATCTTTTATTAGAAGAATTACTTCCAGGGCATTGCATGCTT
- binding result [2]: no binding

B3: GT2 (dsDNA)
DNA 1: AAGCATGCAATGCCCTGGAAGTGTAATTCTTCTAATAAAAGATGTATCATTTTAAATGC
DNA 2: GCATTTAAAATGATACATCTTTTATTAGAAGAATTACACTTCCAGGGCATTGCATGCTT
- binding result [1]: binds

B4: GGTGT (dsDNA)
DNA 1: AAGCATGCAATGCCCTGGAAGGTGTAATTCTTCTAATAAAAGATGTATCATTTTAAATGC
DNA 2: GCATTTAAAATGATACATCTTTTATTAGAAGAATTACACCTTCCAGGGCATTGCATGCTT
- binding result [3]: binds

B5: GGTGU (dsDNA)
DNA 1: AAGCATGCAATGCCCTGGAAGGTGUAATTCTTCTAATAAAAGATGTATCATTTTAAATGC
DNA 2: GCATTTAAAATGATACATCTTTTATTAGAAGAATTACACCTTCCAGGGCATTGCATGCTT
modifications: 3' motif T replaced by deoxyuridine
- binding result [4]: binds

B6: GT5 (dsDNA)
DNA 1: AAGCATGCAATGCCCTGGAAGTGTGTGTGTAATTCTTCTAATAAAAGATGTATCATTTTAAATGC
DNA 2: GCATTTAAAATGATACATCTTTTATTAGAAGAATTACACACACACTTCCAGGGCATTGCATGCTT
- binding result [1]: binds

B7: mCG (dsDNA)
DNA 1: AAGCATGCAATGCCCTGGAACGGAATTCTTCTAATAAAAGATGTATCATTTTAAATGC
DNA 2: GCATTTAAAATGATACATCTTTTATTAGAAGAATTCCGTTCCAGGGCATTGCATGCTT
modifications: 5mC at strand 1 position 21; reverse strand the appropriate methylated oligo (position not given)
- binding result [5]: binds
- binding result [6]: binds

B8: CAC (dsDNA)
DNA 1: AAGCATGCAATGCCCTGGAACACAATTCTTCTAATAAAAGATGTATCATTTTAAATGC
DNA 2: GCATTTAAAATGATACATCTTTTATTAGAAGAATTGTGTTCCAGGGCATTGCATGCTT
- binding result [7]: no binding

B9: mCAC (dsDNA)
DNA 1: AAGCATGCAATGCCCTGGAACACAATTCTTCTAATAAAAGATGTATCATTTTAAATGC
DNA 2: GCATTTAAAATGATACATCTTTTATTAGAAGAATTGTGTTCCAGGGCATTGCATGCTT
modifications: 5mC at strand 1 position 21
- binding result [8]: binds
- binding result [9]: binds

B10: GT3 (dsDNA)
DNA 1: AAGCATGCAATGCCCTGGAAGTGTGTAATTCTTCTAATAAAAGATGTATCATTTTAAATGC
DNA 2: GCATTTAAAATGATACATCTTTTATTAGAAGAATTACACACTTCCAGGGCATTGCATGCTT
- binding result [1]: binds
